For test [1], the target named is グリセルアルデヒド由来AGEs含有ウシ血清アルブミン(Glycer−AGEs−BSA) (bovine) (UniProt P02769). Kind of test: SPR, Biacore T200; Glycer-AGEs-BSA amine-coupled on CM5, antibody 0-400 nM. In general terms: In SPR one partner is held on a chip, and binding of the other changes the refractive index at the surface.
For test [2], the target named is Glycer−AGEs由来新規構造体修飾―ウシ血清アルブミン(GAL13−BSA) (bovine) (UniProt P02769). Kind of test: SPR, Biacore T200; GAL13-BSA amine-coupled on CM5.
Test [3] has as its target A−peakを架橋させたBSA(A−peak−BSA) (bovine) (UniProt P02769). Kind of test: SPR, Biacore T200; A-peak-BSA amine-coupled on CM5 (72 RU), antibody 0.1953-50 nM, 1:1 binding model.

This passage reports Kd results from JP2021136920A.

B1: 新規モノクローナル抗体SJ−5 (antibody, V domains shown)
VH: EVMLVESGGRLVKPGGSLKLSCAASGFTFSSYGMSWVRQTPEKRLEWVATISGGGSYTYYPDSVKGRFTISRDNVKNNLYLQMSSLRSEDTALYYCARRGAYGDYGWFAYWGQGTLVTVSA
VL: DIVLTQSPATLSVTPGDSVSLSCRASQSINNNLHWYQQKSHESPRLLIKCASQSISGIPSRFSGSGSGTDFTLSINSVETEDFGMYFCQQSNSWPLTFGAGTKLELK
As for B1, the Kd in test [1] was determined as 57.4 nM; in test [2] it was 87.5 nM.

B2: 新規モノクローナル抗体PB−1 (antibody, V domains shown)
VH: EVRLQQSGPELVKPGTSVKISCKASGYSFTGYYMHWVKQSPVKSLEWIGRIIPYNGATSYNQNFKDKASLTVDKSSRTAYMDLHSLTSEDSAVYYCARSRYYGRAPYYFDYWGQGTTLTVSS
VL: DVVVTQTPLSLPVSLGDQASISCRSSQSIVHSNGNTYLEWYLQKPGQSPKLLIYKVSNRFSGVPDRISGSGSGTDFTLKISRVEAGDLGVYSCFQGSHVPFTFGSGTKLEIK
In test [3], B2 gave a Kd of 4.15 nM.

In general, Kd refers to the equilibrium constant for the complex coming apart. A higher Kd goes with lower affinity.
